B1: Strep-tagged N-terminal BRCT1–2 domain fragment of PTIP (recombinant) (domain or fragment)
chain: VPEELFREVKYYAVGDIDPQVIQLLKAGKAKEVSYNALASHIISEDGDNPEVGEAREVFDLPVVKPSWVTLSVQCGALLPVNGFSPESCQIFFGLTACLSQVSSEDRSALWALVTFHGGSCQLNLNKKCTHLIVPEPKGEKYERAVKRTSIKIVTPDWVLDCVSEKRRKDEAFYHP
B2: Flag-tagged full-length PA1 (recombinant) (natural protein, UniProt Q99L02 1-253, looked up)
chain: MSLALGHGTIAGSTAAPLSEEGEVTSGLQALAVEDTGGPSVSASKAEEEGKGSQEEAGREGSRPEEALEAPSAASDERAEGEAEDWCVPCSDEEVELPANGQSWMPPPSEIQRLYELLATQGTLELQAEILPRRPPTPEAQSEEERSDEEPEAKEEEEEKPHMPTEFDFDDEPMTPKDSLIDRRRTPGSSARSQKREARLDKVLSDMKRHKKLEEQILRTGRDLFSLDSEGPSPTSPPLRSSGNSLFPRQRKY

How the values were obtained:
[1] = target: B2; assay: ITC
[2] = target: B1; assay: ITC

Binder	Kd [1] [nM]	dH [2] [kcal/mol]	stoichiometry N [2]
B1	7.1		
B2		-26	1

— publication PMC4719306 (Genes & Development, 2016)
